Common to all, as to details: room temperature 30-45 min, BLI: 20 mM Tris-HCl pH 7.4, 80 mM NaCl, 20 mM KCl, 1 mM DTT
In data set [1] the test system is Hantavirus nucleocapsid protein (NP), wild type (Sin Nombre virus). Kind of data set: filter binding.
Data set [2] shares this test system. In words: filter binding. This is another data set of the same source.
Data set [3] has the same test system. Kind of data set: filter binding. The source holds these as a separate data set.
The test system is the same in data set [4]. In words: filter binding. This is another data set of the same source.
Data set [5] has the same test system. Kind of data set: BLI.

As to Mutant 1 (VCP 5' UTR nt 1-542), in data set [1], the equilibrium dissociation constant (Kd) was found to be 0.0422 µM. For the substance Mutant 2 (VCP 5' UTR nt 542-988), the Kd in data set [1] is 1.9 µM; in data set [2] it was 1.6 µM. As to Mutant 3 (mutant 1 lacking nt 530-542), the Kd in data set [1] and in data set [3] was 2.4 µM in each case. As for “Mutant 4 (wild type UTR lacking nt 530-542)”, the equilibrium dissociation constant (Kd) in data set [1] was determined as 3.9 µM; in data set [4], 1.4 µM.

As for VCP mRNA 5' UTR wild type, the dissociation constant (Kd) in data set [5] came to 0.025 µM; in data set [1], 0.047 µM.

These data come from PMC10798635.
